US20120189542A1 (published 2012)

Molecular target: T1, human CD19 on CD19+ human lymphoma cells (Raji, Daudi, Ramos) (human, UniProt P15391 20-556)
T1 construct: whole, on cells; The target is presented on cells; also called CD19 antigen; CD19 molecule
T1 sequence (looked up): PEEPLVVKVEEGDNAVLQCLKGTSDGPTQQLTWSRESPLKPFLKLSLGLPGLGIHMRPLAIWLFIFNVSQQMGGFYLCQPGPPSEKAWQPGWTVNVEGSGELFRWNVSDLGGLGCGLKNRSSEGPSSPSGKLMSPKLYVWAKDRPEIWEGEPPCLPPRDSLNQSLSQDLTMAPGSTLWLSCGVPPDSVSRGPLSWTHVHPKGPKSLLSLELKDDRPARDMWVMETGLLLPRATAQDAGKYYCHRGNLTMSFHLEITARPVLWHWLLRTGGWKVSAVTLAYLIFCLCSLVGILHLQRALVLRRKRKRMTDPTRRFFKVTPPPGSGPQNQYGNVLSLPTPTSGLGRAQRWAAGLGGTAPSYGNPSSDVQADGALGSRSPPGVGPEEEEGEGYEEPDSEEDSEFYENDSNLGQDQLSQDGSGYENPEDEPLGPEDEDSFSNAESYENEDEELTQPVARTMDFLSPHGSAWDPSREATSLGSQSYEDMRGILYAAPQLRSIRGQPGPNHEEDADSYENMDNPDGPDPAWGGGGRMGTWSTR
Experiment: direct cell surface binding of 125I-labeled antibody to Raji cells, Scatchard plot analysis

Kd: 1.1 nM
B1: humanized anti-CD19 antibody hA19 (antibody, V domains shown)
VH: QVQLQQSGAEVKKPGSSVKVSCKASGYAFSSYWMNWVRQRPGQGLEWIGQIWPGDGDTNYNGKFKGRATITADESTNTAYMELSSLRSEDTAFYSCARRETTTVGRYYYAMDYWGQGTTVTVSS
VL: DIQLTQSPSSLSASVGDRVTITCKASQSVDYDGDSYLNWYQQIPGKAPKLLIYDASNLVSGIPPRFSGSGSGTDYTFTISSLQPEDIATYHCQQSTEDPWTFGGGTKLQIKR
notes: It was expressed from pdHL2, which carries human IgG heavy and light chain constant regions (IgG1 per the general description); also called humanized A19 antibody
